The values that follow are results of earlier work, collected in patent publication US11040110B2, “Polypeptide complex comprising non-peptidyl polymer having three functional ends” (HANMI SCIENCE CO., LTD., priority 2008, dated 2021).

For the data set the following is noted: Osborn et al. 2002.

On to interferon alpha, for which the serum half-life is 5 h.
